Target: T1, MtRipACAT (catalytic domain of M. tuberculosis RipA, residues 261-472) (Mycobacterium tuberculosis, UniProt O53168 261-472)
T1 construct: also called MtRipA catalytic domain; NlpC/P60 catalytic domain; not shown: 6xHis-SUMO, N-terminal, cleaved
T1 sequence: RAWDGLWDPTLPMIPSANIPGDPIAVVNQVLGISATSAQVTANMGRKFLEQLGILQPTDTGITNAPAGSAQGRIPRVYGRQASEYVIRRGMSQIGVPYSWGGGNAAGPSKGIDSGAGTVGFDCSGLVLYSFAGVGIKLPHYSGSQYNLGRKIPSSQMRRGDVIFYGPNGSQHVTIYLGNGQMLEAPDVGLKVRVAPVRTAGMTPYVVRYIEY
Assay: BLI; biotinylated MtRipACC immobilised on streptavidin biosensors; 25°C; 25 mM HEPES pH 7.5, 150 mM NaCl, 5% glycerol, BSA 1 mg/mL, 0.05% Tween 20; steady-state signal versus concentration, one-site binding model; apparent Kd
Conditions: both partners purified

B1: MtRipACC (coiled-coil domain of M. tuberculosis RipA, residues 40-240) (domain or fragment)
chain: DPQTDTIAALIADVAKANQRLQDLSDEVQAEQESVNKAMVDVETARDNAAAAEDDLEVSQRAVKDANAAIAAAQHRFDTFAAATYMNGPSVSYLSASSPDEIIATVTAAKTLSASSQAVMANLQRARTERVNTESAARLAKQKADKAAADAKASQDAAVAALTETRRKFDEQREEVQRLAAERDAAQARLQAARLVAWSSE
modifications: biotinylated with EZ-Link NHS-PEG4-Biotin (20 molar excess) for the BLI assays
notes: also called RipA coiled-coil (CC) domain; MtRipA CC domain; not shown: 6xHis-SUMO, N-terminal, cleaved
Kd: 6.8 ± 1.4 µM

Reference: paper doi:10.1101/2025.06.28.662095, “Mechanistic insights into the allosteric regulation of cell wall hydrolase RipA in Mycobacterium tuberculosis” (bioRxiv, 2025)
